Data from patent US20080187984A1, “Myo-inositol oxygenases” (Cargill, Incorporated, priority 2001, published 2008).

Target: T1, gulono-γ-lactone oxidase (Rattus norvegicus, UniProt P10867, I85V)
T1 construct: His tag (pET30a fusion); made in house; host or cells: E. coli Rosetta(DE3), pET30a
T1 sequence (P10867 1-440 I85V): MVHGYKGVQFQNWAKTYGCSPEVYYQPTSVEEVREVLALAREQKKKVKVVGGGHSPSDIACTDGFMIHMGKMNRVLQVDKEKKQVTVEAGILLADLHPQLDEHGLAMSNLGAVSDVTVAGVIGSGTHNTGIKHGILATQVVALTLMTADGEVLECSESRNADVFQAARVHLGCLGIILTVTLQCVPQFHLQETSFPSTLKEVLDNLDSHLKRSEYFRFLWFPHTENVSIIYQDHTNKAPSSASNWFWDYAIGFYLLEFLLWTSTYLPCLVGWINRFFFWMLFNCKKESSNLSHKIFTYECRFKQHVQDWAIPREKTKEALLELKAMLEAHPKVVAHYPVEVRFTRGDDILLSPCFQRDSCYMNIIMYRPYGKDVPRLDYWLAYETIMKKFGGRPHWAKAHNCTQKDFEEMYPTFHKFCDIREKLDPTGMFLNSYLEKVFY
Assay: GLO assay, ascorbic acid from L-gulono-γ-lactone
Format: biochemical
Details: His-Bind purified from E. coli; 2.5 mM L-gulono-γ-lactone
Protocol: GLO activity was assayed according to the procedure described by Nishikimi (Methods in Enzymology, 62:24-30 (1979)). The assay mixture contained, in 1 mL, 50 mM potassium phosphate buffer, pH 7.5, 2.5 mM L-gulono-γ-lactone, 1 mM EDTA, and enzyme. The reaction was initiated by the addition of either substrate or enzyme, and the mixture was incubated with shaking in air for 15 minutes at 37° C. The reaction was stopped by the addition of 0.1 mL 50% trichloroacetic acid, and the precipitated protein was removed by centrifugation. The product ascorbic acid was detected by the method described in Example 9. Briefly, 0.956 mL 2,2′-dipyridyl reagent was added to 0.15 mL of the supernatant solution, and the reaction mixture was incubated at 25° C. for 15 minutes. After 15 minutes, the sample was centrifuged to remove any precipitate, and the absorbance was read at 525 nm. The 2,2′-dipyridyl reagent contained 0.056 mL ortho-phosphoric acid (85%), 0.75 mL 0.5% 2,2′-dipyridyl (prepared in hot H2O), and 0.15 mL 1% FeCl3 (in H2O). Standards of ascorbic acid (1.0 μg to 10 μg) were run in parallel with the biological samples for a standard curve. One unit is defined as the quantity that catalyzes the formation of 1 nmol of L-ascorbic acid in 1 minute under the conditions described above. Specific activity is expressed as units per mg of protein ([…]/min/mg).

B1: GLO: gulono-γ-lactone oxidase, rat glo expressed from pET30a in E. coli Rosetta(DE3), His-Bind purified (protein, UniProt P10867 2-440, looked up)
L-gulonolactone oxidase: VHGYKGVQFQNWAKTYGCSPEVYYQPTSVEEVREVLALAREQKKKVKVVGGGHSPSDIACTDGFMIHMGKMNRVLQVDKEKKQITVEAGILLADLHPQLDEHGLAMSNLGAVSDVTVAGVIGSGTHNTGIKHGILATQVVALTLMTADGEVLECSESRNADVFQAARVHLGCLGIILTVTLQCVPQFHLQETSFPSTLKEVLDNLDSHLKRSEYFRFLWFPHTENVSIIYQDHTNKAPSSASNWFWDYAIGFYLLEFLLWTSTYLPCLVGWINRFFFWMLFNCKKESSNLSHKIFTYECRFKQHVQDWAIPREKTKEALLELKAMLEAHPKVVAHYPVEVRFTRGDDILLSPCFQRDSCYMNIIMYRPYGKDVPRLDYWLAYETIMKKFGGRPHWAKAHNCTQKDFEEMYPTFHKFCDIREKLDPTGMFLNSYLEKVFY
modifications: His tag
For B1, the “Specific Activity (purified protein)” value was 0.926 nmol/min/mg.
